According to US20240400618A1 (GRIFOLS DIAGNOSTIC SOLUTIONS, published 2024):
Where two headings read alike, the source gives them in different places.

Tests used:
commercial RBD protein = commercial RBD protein (SARS-CoV-2, UniProt P0DTC2 319-541)
pxENB9-FLS-CT-His [1] = target: T1, pxENB9-FLS-CT-His (SARS-CoV-2, UniProt P0DTC2 15-1213)
pxENB1-His-TEV-FLS-TN [2] = target: T2, pxENB1-His-TEV-FLS-TN (SARS-CoV-2, UniProt P0DTC2 14-1213)
pxENB14-His-TEV-RBD = pxENB14-His-TEV-RBD (SARS-CoV-2, UniProt P0DTC2 319-541)
[3] = target: pxENBEP17_TPA_Nuc(1-182)_Spike (15-1216, GAAS, PP)_10xHis (SARS-CoV-2)
pxEBNCP14-tPa-FLS-CT-His = pxEBNCP14-tPa-FLS-CT-His (SARS-CoV-2, UniProt P0DTC2 16-1213)
pxENB5-his-TEV-FLS [4] = target: T3, pxENB5-his-TEV-FLS (SARS-CoV-2, UniProt P0DTC2 14-1213)
pxENB12-FLS-His [5] = target: T4, pxENB12-FLS-His (SARS-CoV-2, UniProt P0DTC2 15-1213)
pxENB17-RBD-His [6] = target: T5, pxENB17-RBD-His (SARS-CoV-2, UniProt P0DTC2 319-541)
pxENB8-FLS-TN-His [7] = target: T6, pxENB8-FLS-TN-His (SARS-CoV-2, UniProt P0DTC2 15-1213)
pxEBNCP16-IL2-FLS-CT-His = pxEBNCP16-IL2-FLS-CT-His (SARS-CoV-2, UniProt P0DTC2 16-1213)
[8] = target: pxENBEP18_Spike_Nuc(1-182)_10xHis (SARS-CoV-2)
[9] = target: pxEBNCP15-mIgGHC-FLS-CT-His (SARS-CoV-2, UniProt P0DTC2 16-1213)
pxEBNCP3-S1-His = pxEBNCP3-S1-His (SARS-CoV-2, UniProt P0DTC2 15-681)
pxENB9-FLS-CT-His [10] = target: T1, pxENB9-FLS-CT-His; remark: listed apart in the source
pxENB2-His-TEV-FLS-CT [11] = target: T7, pxENB2-His-TEV-FLS-CT (SARS-CoV-2, UniProt P0DTC2 14-1213)
pxAM-FLS-A-TB-His = pxAM-FLS-A-TB-His (SARS-CoV-2, UniProt P0DTC2 15-1213)
pxEBNCP1-His-TEV-S1 = pxEBNCP1-His-TEV-S1 (SARS-CoV-2, UniProt P0DTC2 14-680)
pxEBNCP4-tPa-S1-His = pxEBNCP4-tPa-S1-His (SARS-CoV-2, UniProt P0DTC2 15-681)
pxEBNCP2-tPa-His-TEV-S1 = pxEBNCP2-tPa-His-TEV-S1 (SARS-CoV-2, UniProt P0DTC2 14-680)
pxENB1-His-TEV-FLS-TN [12] = target: T2, pxENB1-His-TEV-FLS-TN; remark: listed apart in the source
pxENB5-his-TEV-FLS [13] = target: T3, pxENB5-his-TEV-FLS; remark: listed apart in the source
pxENB12-FLS-His [14] = target: T4, pxENB12-FLS-His; remark: listed apart in the source
pxENB8-FLS-TN-His [15] = target: T6, pxENB8-FLS-TN-His; remark: listed apart in the source
pxENB9-FLS-CT-His [16] = target: T1, pxENB9-FLS-CT-His; remark: listed apart in the source
pxENB2-His-TEV-FLS-CT [17] = target: T7, pxENB2-His-TEV-FLS-CT; remark: listed apart in the source
pxENB17-RBD-His [18] = target: T5, pxENB17-RBD-His; remark: listed apart in the source
[19] = target: pxENBCP19-FLS-CT-His-StrepTagII (SARS-CoV-2, UniProt P0DTC2 15-1213)
pxENBCP20-FLS-CT-His-TST = pxENBCP20-FLS-CT-His-TST (SARS-CoV-2, UniProt P0DTC2 15-1213)
pxENBCP17-FLS-CT-His-SBP = pxENBCP17-FLS-CT-His-SBP (SARS-CoV-2, UniProt P0DTC2 15-1213)

B1: pxEBN4-ACE2-AAA-His (receptor)
chain: QSTIEEQAKTFLDKFNHEAEDLFYQSSLASWNYNTNITEENVQNMNNAGDKWSAFLKEQSTLAQMYPLQEIQNLTVKLQLQALQQNGSSVLSEDKSKRLNTILNTMSTIYSTGKVCNPDAPAECLLLEPGLNEIMANSLDYNERLWAWESWRSEVGKALRPLYEEYVVLKNEMARANHYEDYGDYWRGDYEVNGVDGYDYSRGQLIEDVEHTFEEIKPLYEHLHAYVRAKLMNAYPSYISPIGCLPAHLLGDMWGRFWTNLYSLTVPFGQKPNIDVTDAMVDQAWDAQRIFKEAEKFFVSVGLPNMTQGFWENSMLTDPGNVQKAVCHPTAWDLGKGDFRILMCTKVTMDDFLTAHHEMGHIQYDMAYAAQPFLLRNGANEGFHEAVGEIMSLSAATPKHLKSIGLLSPDFQEDNETEINFLLKQALTIVGTLPFTYMLEKWRWMVFKGEIPKDQWMKKWWEMKREIVGVVEPVPHDETYCDPASLFHVSNDYSFIRYYTRTLYQFQFQEALCQAAKHEGPLHKCDISNSTEAGQKLFNMLRLGKSEPWTLALENVVGAKNMNVRPLLNYFEPLFTWLKDQNKNSFVGWSTDWSPYADGGGSHHHHHHHH
- Kd (commercial RBD protein): 0.2 nM
- Kd (pxENB9-FLS-CT-His [1]): 36.6 nM
- Kd (pxENB1-His-TEV-FLS-TN [2]): 69.2 nM
- Kd (pxENB14-His-TEV-RBD): 0.156 nM
- Kd [3]: 26.9 nM
- Kd (pxEBNCP14-tPa-FLS-CT-His): 0.00613 nM
- Kd (pxENB5-his-TEV-FLS [4]): 19.5 nM
- Kd (pxENB12-FLS-His [5]): 13.1 nM
- Kd (pxENB17-RBD-His [6]): 0.242 nM
- Kd (pxENB8-FLS-TN-His [7]): 12.4 nM
- Kd (pxEBNCP16-IL2-FLS-CT-His): 1.46 nM
- Kd [8]: 21.6 nM
- Kd [9]: < 0.001 nM
- Kd (pxEBNCP3-S1-His): 39.6 nM
- Kd (pxENB9-FLS-CT-His [10]): < 0.001 nM
- Kd (pxENB2-His-TEV-FLS-CT [11]): 0.45 nM
- Kd (pxAM-FLS-A-TB-His): 0.00709 nM
- Kd (pxEBNCP1-His-TEV-S1): 22.8 nM
- Kd (pxEBNCP4-tPa-S1-His): 45 nM
- Kd (pxEBNCP2-tPa-His-TEV-S1): 34.2 nM
- Kd (pxENB1-His-TEV-FLS-TN [12]): 3.9 nM
- Kd (pxENB5-his-TEV-FLS [13]): 16.6 nM
- Kd (pxENB12-FLS-His [14]): 3.19 nM
- Kd (pxENB8-FLS-TN-His [15]): 6.51 nM
- Kd (pxENB9-FLS-CT-His [16]): < 0.001 nM
- Kd (pxENB2-His-TEV-FLS-CT [17]): 1.1 nM
- Kd (pxENB17-RBD-His [18]): 32.6 nM
- Kd [19]: 90.8 nM
- Kd (pxENBCP20-FLS-CT-His-TST): 51.6 nM
- Kd (pxENBCP17-FLS-CT-His-SBP): 51.5 nM
